Assay results as given in article PMC9036127, “The nuclease activity of DNA2 promotes exonuclease 1–independent mismatch repair” (The Journal of Biological Chemistry, 2022).

Target: T1, Human MutSα (MSH2-MSH6 heterodimer) (human, UniProt P43246 1-934; P52701 1-1360)
T1 construct: MSH2, human, subunit of MutSα; MSH6, human, subunit of MutSα
Assay: co-IP; purified proteins; MutSα- or MutLα-containing agarose beads (antibodies against MSH2 or MLH1), DNA2 in solution; for MutSα 30-μl mixtures with MutSα (3.4 pmol) and DNA2 (3.4 pmol); eluted fractions analyzed by immunoblotting
Conditions: both partners purified

T1 sequence (P43246 whole entry, chain 1 of 2): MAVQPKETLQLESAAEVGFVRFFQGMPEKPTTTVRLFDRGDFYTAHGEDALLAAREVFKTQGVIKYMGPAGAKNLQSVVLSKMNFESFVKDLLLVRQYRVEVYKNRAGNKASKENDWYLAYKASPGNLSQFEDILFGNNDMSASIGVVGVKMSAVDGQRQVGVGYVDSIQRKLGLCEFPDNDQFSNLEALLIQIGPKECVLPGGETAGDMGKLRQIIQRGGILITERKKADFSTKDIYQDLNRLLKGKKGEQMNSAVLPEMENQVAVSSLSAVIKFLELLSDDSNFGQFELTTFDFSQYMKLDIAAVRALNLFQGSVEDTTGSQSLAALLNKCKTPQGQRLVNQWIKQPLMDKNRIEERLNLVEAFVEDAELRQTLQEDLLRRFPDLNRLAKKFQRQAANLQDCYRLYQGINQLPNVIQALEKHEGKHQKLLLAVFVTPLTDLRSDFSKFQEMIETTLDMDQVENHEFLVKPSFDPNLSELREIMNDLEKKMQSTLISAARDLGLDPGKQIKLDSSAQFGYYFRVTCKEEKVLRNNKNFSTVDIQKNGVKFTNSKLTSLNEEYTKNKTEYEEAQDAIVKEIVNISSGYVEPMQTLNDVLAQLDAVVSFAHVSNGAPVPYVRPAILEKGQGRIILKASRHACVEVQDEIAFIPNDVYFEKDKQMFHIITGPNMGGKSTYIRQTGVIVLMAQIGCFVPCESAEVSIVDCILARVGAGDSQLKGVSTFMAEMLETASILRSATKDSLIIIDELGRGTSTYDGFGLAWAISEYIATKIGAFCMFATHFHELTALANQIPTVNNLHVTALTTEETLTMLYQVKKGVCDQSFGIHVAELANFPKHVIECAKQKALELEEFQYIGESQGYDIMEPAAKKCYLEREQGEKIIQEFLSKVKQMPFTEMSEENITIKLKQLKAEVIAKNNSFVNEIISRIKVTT
T1 sequence (P52701 whole entry, chain 2 of 2): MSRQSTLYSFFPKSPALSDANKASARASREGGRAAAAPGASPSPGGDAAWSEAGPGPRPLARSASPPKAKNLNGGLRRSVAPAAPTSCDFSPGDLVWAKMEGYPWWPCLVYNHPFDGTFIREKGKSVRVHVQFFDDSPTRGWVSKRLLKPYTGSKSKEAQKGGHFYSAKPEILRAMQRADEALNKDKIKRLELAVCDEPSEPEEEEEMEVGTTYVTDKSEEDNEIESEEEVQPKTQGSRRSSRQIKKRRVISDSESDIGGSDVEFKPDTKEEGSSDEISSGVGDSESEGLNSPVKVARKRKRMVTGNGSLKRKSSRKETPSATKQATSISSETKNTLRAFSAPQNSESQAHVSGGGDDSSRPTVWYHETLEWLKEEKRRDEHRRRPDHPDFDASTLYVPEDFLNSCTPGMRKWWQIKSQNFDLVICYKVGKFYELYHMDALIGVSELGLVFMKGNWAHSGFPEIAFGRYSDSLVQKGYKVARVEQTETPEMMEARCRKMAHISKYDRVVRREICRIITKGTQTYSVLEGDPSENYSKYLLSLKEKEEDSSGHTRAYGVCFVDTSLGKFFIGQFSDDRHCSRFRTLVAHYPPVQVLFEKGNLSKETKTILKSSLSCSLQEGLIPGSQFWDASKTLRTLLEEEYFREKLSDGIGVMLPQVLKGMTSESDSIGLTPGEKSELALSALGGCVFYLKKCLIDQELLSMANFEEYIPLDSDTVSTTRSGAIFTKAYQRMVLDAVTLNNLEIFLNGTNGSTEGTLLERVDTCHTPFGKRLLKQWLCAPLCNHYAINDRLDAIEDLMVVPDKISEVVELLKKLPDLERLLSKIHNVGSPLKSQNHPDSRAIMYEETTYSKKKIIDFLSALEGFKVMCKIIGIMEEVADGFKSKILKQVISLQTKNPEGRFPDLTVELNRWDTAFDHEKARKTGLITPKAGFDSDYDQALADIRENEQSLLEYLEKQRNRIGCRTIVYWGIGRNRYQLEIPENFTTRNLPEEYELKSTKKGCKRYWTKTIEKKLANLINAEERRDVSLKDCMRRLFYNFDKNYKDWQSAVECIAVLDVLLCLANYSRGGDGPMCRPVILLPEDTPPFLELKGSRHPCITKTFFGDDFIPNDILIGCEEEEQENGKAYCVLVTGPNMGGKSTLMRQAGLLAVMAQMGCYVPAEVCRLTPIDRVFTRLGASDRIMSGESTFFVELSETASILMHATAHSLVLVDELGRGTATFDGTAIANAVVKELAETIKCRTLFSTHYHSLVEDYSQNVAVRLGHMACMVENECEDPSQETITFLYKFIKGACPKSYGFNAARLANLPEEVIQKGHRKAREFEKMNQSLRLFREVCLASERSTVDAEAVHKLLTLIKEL

B1: Human DNA2 nuclease/helicase (enzyme, UniProt P51530 1-1060, looked up)
chain: MEQLNELELLMEKSFWEEAELPAELFQKKVVASFPRTVLSTGMDNRYLVLAVNTVQNKEGNCEKRLVITASQSLENKELCILRNDWCSVPVEPGDIIHLEGDCTSDTWIIDKDFGYLILYPDMLISGTSIASSIRCMRRAVLSETFRSSDPATRQMLIGTVLHEVFQKAINNSFAPEKLQELAFQTIQEIRHLKEMYRLNLSQDEIKQEVEDYLPSFCKWAGDFMHKNTSTDFPQMQLSLPSDNSKDNSTCNIEVVKPMDIEESIWSPRFGLKGKIDVTVGVKIHRGYKTKYKIMPLELKTGKESNSIEHRSQVVLYTLLSQERRADPEAGLLLYLKTGQMYPVPANHLDKRELLKLRNQMAFSLFHRISKSATRQKTQLASLPQIIEEEKTCKYCSQIGNCALYSRAVEQQMDCSSVPIVMLPKIEEETQHLKQTHLEYFSLWCLMLTLESQSKDNKKNHQNIWLMPASEMEKSGSCIGNLIRMEHVKIVCDGQYLHNFQCKHGAIPVTNLMAGDRVIVSGEERSLFALSRGYVKEINMTTVTCLLDRNLSVLPESTLFRLDQEEKNCDIDTPLGNLSKLMENTFVSKKLRDLIIDFREPQFISYLSSVLPHDAKDTVACILKGLNKPQRQAMKKVLLSKDYTLIVGMPGTGKTTTICTLVRILYACGFSVLLTSYTHSAVDNILLKLAKFKIGFLRLGQIQKVHPAIQQFTEQEICRSKSIKSLALLEELYNSQLIVATTCMGINHPIFSRKIFDFCIVDEASQISQPICLGPLFFSRRFVLVGDHQQLPPLVLNREARALGMSESLFKRLEQNKSAVVQLTVQYRMNSKIMSLSNKLTYEGKLECGSDKVANAVINLRHFKDVKLELEFYADYSDNPWLMGVFEPNNPVCFLNTDKVPAPEQVEKGGVSNVTEAKLIVFLTSIFVKAGCSPSDIGIIAPYRQQLKIINDLLARSIGMVEVNTVDKYQGRDKSIVLVSFVRSNKDGTVGELLKDWRRLNVAITRAKHKLILLGCVPSLNCYPPLEKLLNHLNSEKLIIDLPSREHESLCHILGDFQRE
notes: DNA2 nuclease/helicase, human; wild type; source: insect Sf9 cells (baculovirus, codon-optimized gene), purified (α-Flag M2 beads, MonoS column)
binding result: binds
